# Results as given in the supplement of paper PMC9170038.
# Test system: MS2 coat protein
# Experiment: apparent KD of MS2 coat protein, switch OFF state (with FMN for OFF switches, without FMN for ON switches); designed switch direction (-1 OFF switch, 1 ON switch): -1; higher = weaker reporter binding
# Details: FMN input: 0 or 200 uM; Eterna round: R93 (includes R88 designs)
# Outline: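 Designed RNA switches were transcribed on-chip from Illumina sequencing clusters and titrated with SNAP-549-labelled MS2 coat protein in twofold steps from 0.7 or 1.5 nM up to 3 µM. Each step lasted 0.8–1.5 h at first and 10–20 min by the end, in 100 mM Tris-HCl pH 7.5, 80 mM KCl and 4 mM MgCl2, without or with constant ligand. Apparent KD is the median, for each design, of fits to normalised cluster binding curves.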
row,Sequence,apparent KD of MS2 coat protein
1,AGAAAGUCAGGAUAUACAGAUAAAAAAACGAAAAAAAAUCUGUAGAAGGGACAUGAGGAUCACCCAUGUAAAGA [Mat - Exclusion 4 - Mayanna - D102],39.2 nM
2,AAGAACGUAGGAUAUACAUGAGGAUCACCCAUGUAAAAGAAAGAAAAGGGAAAGAAAAGUAGAAGGACGAAGAA [Usermaatre-setpenre Ramesses II],34.4 nM
3,CUCUUGUGAGGAUAUAGAAGAAAAGAAGAGAAAGAAAAGAACUAGAAGGCACAUGAGGAUCACCCAUGUAAGAA [EteRNA is fun!],39.9 nM
4,AUAAUGUGAGGAUAUACAUGAGGAUCACCCAUGUAAUUAAAUAGGAGAGACACAAUUCGUAGAAGGUACAUUUA [JR_Exc003_Sub508],27.7 nM
5,AGUCGGCGAGGAUAUACAUGAGGAUCACCCAUGUGAGAGAUAAAAGUGAGUUAGACAAGUAGAAGGCGCUGACA [JL Lego Mod 9],480 nM
6,CACAAGUCAGGAUAUUCGACAAGUAAAUCAGUAGAUCAAAAGAAGAAGGGACAUGAGGAUCACCCAUGUAAAUA [JR_Exc004_Sub402],22.3 nM
7,AAAAAACAUGAGGAUCACCCAUGUGAGGAUAUCCUAAACAAAAAAAACAAAAACAAAUGGAGAAGGCACAAAAA [Amethyst 35],126 nM
8,AGAAAACAUGAGGAUCACCCAUGUGAGGAUAUGCGAAAAGAAAGAAAAUAAAAUAAAAGCAGAAGGUACAAAUA,31.3 nM
9,AAAAAUGGAGGAUAUACAUGAGGAUCACCCAUGUGUAACUAUACUAAACACAAAAAAAGUAGAAGGCCAAAAAA [Gilly Gone Silly 8 - Jieux - Exclusion 3],50 nM
10,AAGAACUAAGGAUAUACAAGGAAGAAAGAAAAGAAAAGAAAACAUGAGGAUCACCCAUGUAGAAGGUAGUAGAA [EteRNA is fun!],24.7 nM
11,AAUAACUGAGGAUAUACUAAAGAAAUGAAAAGAAAUAAAGAACAUGAGGAUCACCCAUGUAGAAGGCAGAAUAA [Nuya],30.6 nM
12,AAGAAACAAGGAUAUACAUGAGGAUCACCCAUGUAAAAGAAAGAAAGGGAAGAGAAAAGUAGAAGGUGUAAGAA [Publius Rubrius Barbarus],46 nM
13,AAAACGUGAGGAUAUGCACCAAAAAAAAAAAAACGGGUACGACAUGAGGAUCACCCAUGUAGAAGGCACGAAAA [Frodo Flailing 7 - Jieux - Exclusion 2],39.4 nM
14,CUCUAGUCAGGAUAUACAAGAAAAGAAAAGAAAGAAAAGAAGUAGAAGGGACAUGAGGAUCACCCAUGUAAGAA [EteRNA is fun!],91.5 nM
15,AAGAAUGCAGGAUAUACAAAAUAAAAGAAAAGAAAGAAAGAACAUGAGGAUCACCCAUGUAGAAGGGCGAAGAA [Sewadjkare Hori],34.4 nM
16,UCGUGGUCAGGAUAUACAUGAGGAUCACCCAUGUAAAAGAACAUAAAGGAGAGACGACGUAGAAGGGACAAAUA [Ralasoena],51.5 nM
17,AAAAAGUAAGGAUAUACAAAAAUAAAAAAUUAUGAUAAAAAACAUGAGGAUCACCCAUGUAGAAGGUACGAAAA [AJ 3],26.7 nM
18,CAGUACUGAGGAUAUACAUGAGGAUCACCCAUGUAUCCAAGCUAGGAAACUAGCAAAUGUAGAAGGCAGUACUG [Ex3: 821],319 nM
19,AGAAAACAUGAGGAUCACCCAUGUGAGGAUAUCGAUGUCCAAGACCUGGUGCGGGACUCGAGAAGGCACUGGGA [salish99-ex1-92],44.8 nM
20,AACAGUACAGGAUAUACAUGAGGAUCACCCAUGUAAAAAAAGGGUGGCGUACCACAAAGUAGAAGGGUACUGGA [Moding Maslow revisited (73) 10],44.1 nM
21,AGGCAGACAGGAUAUACUUGGGCAGCCAAUAUAAUAAUAUAACAUGAGGAUCACCCAUGUAGAAGGGUCAGAAA [JR_Exc002_Sub209],86.7 nM
22,AACAGGUCAGGAUAUGUGGAAAAAAUAAAAAAAAUAAAAACACAGAAGGGACAUGAGGAUCACCCAUGUAAAUA [May 22],114 nM
23,"AGCUAGUCAGGAUAUACGAACAUGUAAAAAGAAGUGAAGGGACAUGAGGAUCACCCAUGUAGAAGGGACUAGAA [74%, Web mod - With 3 less C's]",109 nM

row,Sequence,apparent KD of MS2 coat protein
1,AUAGGCCUAGGAUAUACAUGAGGAUCACCCAUGUUAAUACUUCAAUCAAGAUAAAAGUGUAGAAGGAGGAAUAA [JR_Exc003_Sub306],30.9 nM
2,AAAAAUGGAGGAUAUACAUGAGGAUCACCCAUGUGUAACUAUACUAAGCGCUCCUCAGGUAGAAGGCCAAAAAA [Gilly Gone Silly 15 - Jieux - Exclusion 3],48 nM
3,GAAAAGUGAGGAUAUGUCAAAAGUCACAAAAGUGACAAAAGACAGAAGGCACAUGAGGAUCACCCAUGUGGAAG [Mat - Exaclusion 4 - Eli mod - D52],41.1 nM
4,AAUAAACAUGAGGAUCACCCAUGUCAGGAUAUCCUAAAUAAAAAAAUAUAAAGAAGAAGGAGAAGGGACUAAAA [Mystem Exclusion 1],53.5 nM
5,GGUUGGCGAGGAUAUACAUGAGGAUCACCCAUGUGAGAGAAAAAAGUGAGGAAGAAAAGUAGAAGGCGCUGACG [salish99-ex3-14],636 nM
6,AAAAAGGGAGGAUAUACAUGAGGAUCACCCAUGUAUCAGACGAAAAAGAGUCUGAAGUGUAGAAGGCCCAAAAA [Exclusion3-cac2],25.6 nM
7,AAAAAGCGAGGAUAUACAUGAGGAUCACCCAUGUGAAAAAAAAAAUAAUAAAUAAAAGGUAGAAGGCGCAAAAA [V1],87.9 nM
8,GUUGUGCGAGGAUAUAUGUGAGGUUUGCCUCAACAGGUAAUACAUGAGGAUCACCCAUGUAGAAGGCGCAUGAG [S1-(23.6);S2-(22.1) [87C]],342 nM
9,AAGAACGAAGGAUAUACAUGAAAGAAAGAAAAGAAAAGAAAACAUGAGGAUCACCCAUGUAGAAGGUCGUAGAA [EteRNA is fun!],28.8 nM
10,GAUAGGCGAGGAUAUACAUGAGGAUCACCCAUGUAAGUAAGCCUGGCUGAAACUGAAUGUAGAAGGCGCACAUU [Ex3Try2_Neo],39.6 nM
11,AAGAAGGCAGGAUAUACAUGAGGAUCACCCAUGUAAAAGAAAGAAGGGAAAGAGAAAAGUAGAAGGGCCAAGAA [Hedjkheperre-setpenre Takelot II],68.4 nM
12,ACGUAGUCAGGAUAUACGAACAUGUCAAAAGACGUGAAGGGACAUGAGGAUCACCCAUGUAGAAGGGACUACGA [Mat - Exclusion 2 - JL mod - D5],129 nM
13,AGUUGGCGAGGAUAUACAUGAGGAUCACCCAUGUGAGAGAAAAAAGUGAGAAAGAAAAGUAGAAGGCGCUGACC [salish99-ex3-07],103 nM
14,AAAAAUGCAGGAUAUACAUGAGGAUCACCCAUGUUAGACCUGAAAAAAGGGAAAGAAAGUAGAAGGGCAUAAAA [Ex 3 May 30],11.2 nM
15,GAAAAGUGAGGAUAUGUCAAAAGUCACAAAAGUGACAAAAGACAGAAGGCACAUGAGGAUCACCCAUGUGGGAA [Mat - Exaclusion 4 - Eli mod - D50],211 nM
16,AACAAGUGAGGAUAUGAAAAUACAACAAACAAACAACUACAUCAGAAGGCACAUGAGGAUCACCCAUGUAAAAC [JR_Exc004_Sub1204],20.7 nM
17,AACUGACAUGAGGAUCACCCAUGUCAGGAUAUGACUUCAAAAAAAAAAAAAAAUGAUGUCAGAAGGGACAUGAA [Design 62: Sub-opt L],19.3 nM
18,AACAGUACAGGAUAUACAUGAGGAUCACCCAUGUAAAGGGAAUAAAACAAAAAAAAAUGUAGAAGGGUACUGGA [Mat - Exclusion 3 - Eli mod - D66],110 nM
19,AAGAAUCGAGGAUAUACAUGAAAGAAAGAAAAGAAAAGAAAACAUGAGGAUCACCCAUGUAGAAGGCGAUAGAA [EteRNA is fun!],28.7 nM
20,AAGAAACAUGAGGAUCACCCAUGUGAGGAUAUACAAGAAAGAAAGAAAGAAAGAAGAAGUAGAAGGCACAAAGG [Gaius Valerius],14.4 nM
21,AAAAAGGAAGGAUAUACGAACAUGUCGAAAGACGUGAAGGGACAUGAGGAUCACCCAUGUAGAAGGUCCAAAAA [Mat - Exclusion 2 - JL mod - D79],45.8 nM
22,AAAAAGUAAGGAUAUAUAAAAAUAAAAAAUUAUGAUAAAAAACAUGAGGAUCACCCAUGUAGAAGGUACGAAAA [AJ 2],25.6 nM
